Experimental data: the RNAGym collection of RNA variant scans (doi:10.7554/elife.80360)

B1: CPEB3 Ribozyme (parent)
chain: GGGGGCCACAGCAGAAGCGUUCACGUCGCGGCCCCUGUCAGAUUCUGGUGAAUCUGCGAAUUCUGCUGU

Variants of: B1
Experiment: self-cleavage, relative activity (ratio to wild type); higher = more cleavage; co-transcriptional

Variant | self-cleavage
GGGGGUCACAGCAGAAGCGUUCACGUCGCGGCCCCUGUCAGAGUCUGGUGAAUCUGCGAAUUCUGCUGU [C6U U43G] | 0.815
GGGGGCAACAGCAGAAGCAUUCACGUCGCGGCCCCUGUCAGAUUCUGGUGAAUCUGCGAAUUCUGCUGU [C7A G19A] | 0.14
GGGGGCGACAGCAGAAGCGUUCGCGUCGCGGCCCCUGUCAGAUUCUGGUGAAUCUGCGAAUUCUGCUGU [C7G A23G] | 0.333
GGGGGCGACAGCAGAAGCGUUCUCGUCGCGGCCCCUGUCAGAUUCUGGUGAAUCUGCGAAUUCUGCUGU [C7G A23U] | 0.645
GGGGGCAACAGCAGAAGCGUUCCCGUCGCGGCCCCUGUCAGAUUCUGGUGAAUCUGCGAAUUCUGCUGU [C7A A23C] | 0.407
GGGGGUCACAGCAGAAGCGUUCACGUCGCGGCCCCUGUCAGAUUCUGGUGAAUCUGCGAAUCCUGCUGU [C6U U62C] | 0.811
GGGGGCAAAAGCAGAAGCGUUCACGUCGCGGCCCCUGUCAGAUUCUGGUGAAUCUGCGAAUUCUGCUGU [C7A C9A] | 0.97
GGGGGCAACAGCAGAAGCGUUCACGUCGCGGCCCCUGUCAGAUACUGGUGAAUCUGCGAAUUCUGCUGU [C7A U44A] | 0.447
GGGGGCGACAGCCGAAGCGUUCACGUCGCGGCCCCUGUCAGAUUCUGGUGAAUCUGCGAAUUCUGCUGU [C7G A13C] | 0.285
GGGGGCAACAGCAGAAGCGUUCACGUCGCGGCCCAUGUCAGAUUCUGGUGAAUCUGCGAAUUCUGCUGU [C7A C35A] | 0.126
GGGGGCAACACCAGAAGCGUUCACGUCGCGGCCCCUGUCAGAUUCUGGUGAAUCUGCGAAUUCUGCUGU [C7A G11C] | 0.305
GGGGGCAACAGCAGAAGCGUUCACGUCGCGGCCCCUGUGAGAUUCUGGUGAAUCUGCGAAUUCUGCUGU [C7A C39G] | 0.428
GGGGGCAACAGCAGAAGCGUUCACGUCGCGGCCCCUGUCAGAUUCUGGUGAAUCUGCCAAUUCUGCUGU [C7A G58C] | 0.464
GGGGGCAACAGCAGAAGCGUUCACGUCGCGGCCCCUGUCAGAUUCUGGUGAAUGUGCGAAUUCUGCUGU [C7A C54G] | 0.101
GGGGGCAACAGCAGAAGCGUUCACGUCGCGGCCCCUGUCAGAUUCUGGUGAAUCUGCGAAAUCUGCUGU [C7A U61A] | 0.169
GGGGGCAACAGCAGAAGCGUUCACGUCGCGGCCCCUGUCAGAUUCUGGUGAGUCUGCGAAUUCUGCUGU [C7A A52G] | 0.515
GGGGGCAACAGCAGAAGCGUUCACGACGCGGCCCCUGUCAGAUUCUGGUGAAUCUGCGAAUUCUGCUGU [C7A U26A] | 0.176
GGGGGCAACAGCAGAAGCGUUCACGUCGCGGCCCCUGUCAGAUUCUGGUGAAUCUGCGAAUUGUGCUGU [C7A C63G] | 0.303
GGGGGCAACAGCAGAAGCGUUCACGUCGCGGCCCCUGUCAGAUUCUGGUGAAUCUGCGAAUUAUGCUGU [C7A C63A] | 0.149
GGGGGCAACAGCAGAAGCGUUCACGUCGCGGCCCCUGUCAAAUUCUGGUGAAUCUGCGAAUUCUGCUGU [C7A G41A] | 0.255

Variant | self-cleavage
GGGGGCAACAGCAGAAGCGUUCACGUCGCGGCCCCUGUCAUAUUCUGGUGAAUCUGCGAAUUCUGCUGU [C7A G41U] | 0.214
GGGGGCAACAGCAGAAGCGUUCACGUCGCGGCCCCUGUCAGUUUCUGGUGAAUCUGCGAAUUCUGCUGU [C7A A42U] | 0.349
GGGGGCAACAGCAGAAGCGUUCACGUCGCGGCCCCUGUCAGGUUCUGGUGAAUCUGCGAAUUCUGCUGU [C7A A42G] | 0.471
GGGGGCAACAGCAGAAGCGUUCACGUCGCGGCCCCUGUCAGCUUCUGGUGAAUCUGCGAAUUCUGCUGU [C7A A42C] | 0.322
GGGGGCAACAGCAGAAGCGUUCACGUCGCGGCCCCUGUCAGAUUCUGGUGAAUCUGCGAAUUCCGCUGU [C7A U64C] | 0.336
GGGGGCAACAGCAGAAGCGUUCACGUCGCGGCCCCUGUCAGAUUCUGGUGAAUCUUCGAAUUCUGCUGU [C7A G56U] | 0.357
GGGGGCAACAGCAGAAGCGUUCACGUCGAGGCCCCUGUCAGAUUCUGGUGAAUCUGCGAAUUCUGCUGU [C7A C29A] | 0.0674
GGGGGUCACAGCAGAAGCGUUCACGUCGCGGCCCCUGUCAGAUGCUGGUGAAUCUGCGAAUUCUGCUGU [C6U U44G] | 1.01
GGGGGCAACAGCAGAAGCGUUCACGUCGCGGCCCCUGUCAGAUUCUUGUGAAUCUGCGAAUUCUGCUGU [C7A G47U] | 0.637
GGGGGCAACAGCAGAAGCGUUCACGUCGCGGCCCCUGUCAGAUUCUAGUGAAUCUGCGAAUUCUGCUGU [C7A G47A] | 0.612
GGGGGCAACAGCAGAAGCGUUCACGUCGCGGCCCCUGUCAGAUUCUCGUGAAUCUGCGAAUUCUGCUGU [C7A G47C] | 0.593
GGGGGCAACAGCAGUAGCGUUCACGUCGCGGCCCCUGUCAGAUUCUGGUGAAUCUGCGAAUUCUGCUGU [C7A A15U] | 0.135
GGGGGCAACAGCAGAAGCGUUCACGUCGCGGCCCCUGUCAGAUUCUGGUGAAUCUGCGCAUUCUGCUGU [C7A A59C] | 0.239
GGGGGCAACAGCAGAAGCGUUCACGUCGCGGCCCCUUUCAGAUUCUGGUGAAUCUGCGAAUUCUGCUGU [C7A G37U] | 0.0728
GGGGGCAACAGCAGAAGCGUUCACGUCGCGGCCCCUCUCAGAUUCUGGUGAAUCUGCGAAUUCUGCUGU [C7A G37C] | 0.122
GGGGGCAACAGCAGAAGCGUUCACGUCGCGGCCCCUAUCAGAUUCUGGUGAAUCUGCGAAUUCUGCUGU [C7A G37A] | 0.133
GGGGGUCACAGCAGAAGCGUUCACGUCGCGGCCCCUGUCAGAUUCUGGUGAAUCUGCGAAUUCUGCUGC [C6U U69C] | 1.06
GGGGGCAACAGCAGAAGCGUUCACGUCGCGGCCCCUGUCAGAUUCUGGUGAAUCUGCGAGUUCUGCUGU [C7A A60G] | 0.272
GGGGGCAACAGCAGAAGCGUUCACGUCGCGGCCCCUGUCAGAUUCUGCUGAAUCUGCGAAUUCUGCUGU [C7A G48C] | 0.681
